From patent US20250346663A1 (published 2025)

Experiments:
Gen2 leptin = assay: BLI; sample PP5871-021
[1] = molecular target: mbp_G4S_hlep(22-167)V94M (MBP-(G4S)-human leptin V94M-6His); assay: BLI; sample PP2054-095

Binder | Kd (Gen2 leptin) [nM] | Kd [1] [nM]
human leptin receptor (Fc-tagged dimeric) (Fc fusion) FNLSYPITPWRFKLSCMPPNSTYDYFLLPAGLSKNTSNSNGHYETAVEPKFNSSGTHFSNLSKTTFHCCFRSEQDRNCSLCADNIEGKTFVSTVNSLVFQQIDANWNIQCWLKGDLKLFICYVESLFKNLFRNYNYKVHLLYVLPEVLEDSPLVPQKGSFQMVHCNCSVHECCECLVPVPTAKLNDTLLMCLKITSGGVIFQSPLMSVQPINMVKPDPPLGLHMEITDDGNLKISWSSPPLVPFPLQYQVKYSENSTTVIREADKIVSATSLLVDSILPGSSYEVQVRGKRLDGPGIWSDWSTPRVFTTQDVIYFPPKILTSVGSNVSFHCIYKKENKIVPSKEIVWWMNLAEKIPQSQYDVVSDHVSKVTFFNLNETKPRGKFTYDAVYCCNEHECHHRYAELYVIDVNINISCETDGYLTKMTCRWSTSTIQSLAESTLQLRYHRSSLYCSDIPSIHPISEPKDCYLQSDGFYECIFQPIFLLSGYTMWIRINHSLGSLDSPPTCVLPDSVVKPLPPSSVKAEITINIGLLKISWEKPVFPENNLQFQIRYGLSGKEVQWKMYEVYDAKSKSVSLPVPDLCAVYAVQVRCKRLDGLGYWSNWSNPAYTVVMDIKVPMRGPEFWRIINGDTMKKEKNVTLLWKPLMKNDSLCSVQRYVINHHTSCNGTWSEDVGNHTKFTFLWTEQAHTVTVLAINSIGASVANFNLTFSWPMSKVNIVQSLSAYPLNSSCVIVSWILSPSDYKLMYFIIEWKNLNEDGEIKWLRISSSVKKYYIHDHFIPIEKYQFSLYPIFMEGVGKPKIINSFTQDDIEKHQSD | 1.41 | 
human FC-tagged dimeric leptin receptor (Fc fusion) FNLSYPITPWRFKLSCMPPNSTYDYFLLPAGLSKNTSNSNGHYETAVEPKFNSSGTHFSNLSKTTFHCCFRSEQDRNCSLCADNIEGKTFVSTVNSLVFQQIDANWNIQCWLKGDLKLFICYVESLFKNLFRNYNYKVHLLYVLPEVLEDSPLVPQKGSFQMVHCNCSVHECCECLVPVPTAKLNDTLLMCLKITSGGVIFQSPLMSVQPINMVKPDPPLGLHMEITDDGNLKISWSSPPLVPFPLQYQVKYSENSTTVIREADKIVSATSLLVDSILPGSSYEVQVRGKRLDGPGIWSDWSTPRVFTTQDVIYFPPKILTSVGSNVSFHCIYKKENKIVPSKEIVWWMNLAEKIPQSQYDVVSDHVSKVTFFNLNETKPRGKFTYDAVYCCNEHECHHRYAELYVIDVNINISCETDGYLTKMTCRWSTSTIQSLAESTLQLRYHRSSLYCSDIPSIHPISEPKDCYLQSDGFYECIFQPIFLLSGYTMWIRINHSLGSLDSPPTCVLPDSVVKPLPPSSVKAEITINIGLLKISWEKPVFPENNLQFQIRYGLSGKEVQWKMYEVYDAKSKSVSLPVPDLCAVYAVQVRCKRLDGLGYWSNWSNPAYTVVMDIKVPMRGPEFWRIINGDTMKKEKNVTLLWKPLMKNDSLCSVQRYVINHHTSCNGTWSEDVGNHTKFTFLWTEQAHTVTVLAINSIGASVANFNLTFSWPMSKVNIVQSLSAYPLNSSCVIVSWILSPSDYKLMYFIIEWKNLNEDGEIKWLRISSSVKKYYIHDHFIPIEKYQFSLYPIFMEGVGKPKIINSFTQDDIEKHQSD |  | 0.93
